From the Human Domainome abundance scans (Beltran et al. 2025)

B1: Far upstream element-binding protein 1, residues 184 to 257; numbered along this chain, Q96AE4 (parent)
chain: GNAVQEIMIPASKAGLVIGKGGETIKQLQERAGVKMVMIQDGPQNTGADKPLRITGDPYKVQQAKEMVLELIRD

Variants of: B1
Experiment: abundance fitness (aPCA) (normalised: wild type 0, dead -1); higher = more abundant; growth selection in yeast, the domain comes from the species named
Conditions: Homo sapiens

Abundance fitness: each site, then its substitutions
N45: L -0.128, Y -0.091, D 0.013, S -0.057, M -0.055, A -0.019, R -0.022, E -0.024, H -0.022, V -0.057, K -0.008, G -0.008, P -0.055, F 0.023, W -0.105, I -0.029
G42: E 0.007, P -0.059, C -0.037, L -0.158, N -0.059, Q -0.029, Y 0.055, M -0.084, R -0.022, K 0.049, H -0.082, S 0.009, F -0.078, D -0.069, A -0.028, W -0.33, I -0.052
M36: R -0.747, S -0.556, V -0.231, G -0.67, T -0.585, P -0.789, Q -0.656, C -0.239, K -0.78, W -1, D -0.709, I -0.053, E -0.582, A -0.194, N -0.712, H -0.81, Y -0.786
K50: G -0.201, L 0.019, V -0.005, C -0.057, H -0.04, I -0.068, Y 0.018, P -0.202, E -0.202, W -0.058, N -0.071, T -0.019, A -0.027, M -0.035, D -0.525, S -0.068, R -0.005
Q40: D -0.008, P -0.052, L -0.076, S -0.042, V -0.052, I -0.147, K -0.025, Y -0.049, E -0.067, C -0.024, W -0.086, R -0.053, M -0.085, T -0.059, F -0.027, H -0.146
A48: D 0.077, I 0.005, S -0.035, N -0.086, C 0.053, M 0.02, T 0.013, P -0.042, W -0.124, F -0.01, K 0.003, G 0.002, R -0.018, E 0.021, V -0.015
P43: R -0.012, S 0.04, W -0.022, E -0.01, A 0.023, N -0.123, G 0.05, D -0.055, I -0.011, M -0.016, F -0.079, L -0.053, H 0.003, K 0.064, C -0.049, T -0.119, Y -0.003, Q -0.057
P51: E -0.014, M 0.028, Q -0.108, N -0.049, H -0.026, L -0.057, F -0.077, C -0.005, I -0.086, D -0.358, K -0.03, A -0.011
Q44: D 0.004, Y -0.002, H 0.042, P 0.006, N 0.02, F -0.082, S -0.04, R -0.048, K 0.038, C -0.083, L -0.055, A -0.008, W -0.088, E -0.06, V -0.067, M -0.007, G 0.007, I -0.046
G33: D -0.083, K -0.097, I -1.12, C -0.125, T -0.29, H -0.1, A -0.171, Y -0.534, L -0.354, V -0.596, M -0.137, P -0.801, Q -0.057, W -0.807, N -0.063, R -0.119, F -0.43, S -0.123, E -0.081
V37: N -0.065, T -0.026, M -0.07, W -0.059, R -0.019, A -0.054, C 0.009, H -0.178, I -0.049, E -0.006, G -0.172, Q -0.025, S -0.048, P -0.773, K 0.039
D41: F -0.189, H -0.048, R -0.052, L -0.095, Y -0.139, C -0.034, N 0.047, M -0.089, V -0.023, T -0.052, K -0.007, A -0.077, Q -0.006, E 0.009, G -0.009
T46: C -0.058, Y -0.115, W -0.136, L -0.038, A -0.073, F -0.085, S -0.04, Q -0.022, N -0.074, R -0.046, G -0.024, V -0.004, H -0.055, M -0.028, K -0.066, P -0.012, I -0.062
A32: M -0.009, I -0.034, H 0.031, S -0.013, P -0.706, W -0.057, F 0.054, R -0.367, E -0.201, G -0.075, N 0.029, Q -0.077, K -0.171, T 0.02, V -0.062, L -0.017, Y -0.016
M38: C -0.166, Y -0.094, A -0.183, S -0.205, E -0.163, W -0.032, L 0.035, R -0.444, F 0.037, V -0.007, D -0.392, I -0.036, H -0.13, T -0.21, P -0.287, G -0.324
D49: G -0.084, S -0.077, Y -0.015, Q -0.096, K -0.087, A -0.029, P -0.01, N -0.034, R -0.129, V -0.068, F -0.081, I -0.148, T -0.045, H -0.012, W -0.114, L -0.052, C -0.057
I39: D -0.105, W -0.096, F 0.035, P -0.061, E -0.001, M 0.014, Q -0.032, Y -0.08, V 0.006, T -0.088, H -0.095, S -0.02, C -0.051, N 0.014, L -0.008, R 0.006, G -0.028, K 0
V34: G -0.767, M -0.808, R -0.974, D -0.807, P -0.918, I -0.432, T -0.232, Y -1.11, E -0.753, Q -0.833, L -0.567, A -0.153, K -0.946, H -0.87, C -0.086, N -0.68, S -0.639, F -1.35, W -1.35
G47: P -0.108, T -0.018, W -0.157, L -0.069, E -0.038, F -0.014, N -0.034, I -0.168, D -0.043, S -0.001, A -0.02, V -0.054, K 0.061, R -0.096, Q -0.027, H -0.167, M -0.043
K35: D -0.07, M -0.154, E 0.003, C -0.11, H 0.003, V -0.124, F -0.261, L -0.118, W -0.308, R -0.007, Y -0.248, Q 0.015, T -0.093, G -0.071, S -0.116, I -0.158, P -0.472, N 0.023
